# Earlier results, collected in PMC7704677.
# Assays:
# Test in all cases: UV-vis
# Details in all cases: unphotolysed state; further details not given
# Asp85 = Asp85 (UniProt position 98, WARYADWLFTT)
# Asp75 = system: Asp75
# Asp89 = system: Asp89
# Asp95 = Asp95 (UniProt position 95, FYRYADWLLTV)
substance,measurement,setting,value
Bacteriorhodopsin (HsBR) (Halobacterium salinarum),pKa,Asp85,2.7
Anabaena sensory rhodopsin (ASR) (Anabaena (Nostoc) sp.),pKa,Asp75,4.0
Acetabularia rhodopsin I (ARI) (Acetabularia acetabulum),pKa,Asp89,2.7
Thermophilic rhodopsin (TR) (Thermus thermophilus),pKa,Asp95,3.4
